{
  "source": "paper PMC9636422",
  "about": "“AZIN1 RNA editing alters protein interactions, leading to nuclear translocation and worse outcomes in prostate cancer” (Experimental & Molecular Medicine, 2022)",
  "binders": {"B1": {"name": "antizyme-mRuby2 (AZ-mRuby2), recombinant fusion protein (natural protein)", "chain": "not shown", "notes": "antizyme (human OAZ1 gene, codon optimised for E. coli and synthesised de novo); also called hOAZ1; source: E. coli (pBAD vector, codon-optimised gene), purified recombinant"}},
  "experiment_in_all_cases": "FRET or BRET; AZ-mRuby2 titrated (100 pM-1 µM) to a fixed concentration of Clover-AZIN1 variants (50 nM); TBS pH 7.4 + 0.15% Tween-20; equilibrated at room temp for 1 h; donor quenching fitted",
  "settings_in_all_cases": "both partners purified",
  "key": {"[1]": {"target": "T1, Clover-AZIN1 (wild type), recombinant fusion protein (human, UniProt O14977 1-448)", "T1 construct": "The vector encodes the 6X-HIS-tagged fluorescent protein with a TEV protease cleavage site; also called wild-type protein; hAZIN1; source: E. coli (pBAD vector), purified recombinant; not shown: Clover, N-terminal, kept", "T1 sequence (looked up)": "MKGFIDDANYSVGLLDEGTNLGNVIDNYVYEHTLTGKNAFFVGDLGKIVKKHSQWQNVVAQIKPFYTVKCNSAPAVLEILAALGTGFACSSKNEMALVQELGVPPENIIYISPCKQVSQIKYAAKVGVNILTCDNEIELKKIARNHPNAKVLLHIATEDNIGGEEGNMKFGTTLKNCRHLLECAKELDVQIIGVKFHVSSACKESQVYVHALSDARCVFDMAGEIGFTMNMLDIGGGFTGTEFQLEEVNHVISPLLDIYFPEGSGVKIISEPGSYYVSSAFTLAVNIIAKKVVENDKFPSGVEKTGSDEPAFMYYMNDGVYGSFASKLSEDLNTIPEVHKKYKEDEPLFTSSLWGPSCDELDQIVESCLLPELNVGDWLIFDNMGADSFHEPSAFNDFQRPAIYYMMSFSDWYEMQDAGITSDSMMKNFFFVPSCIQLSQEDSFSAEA"}, "[2]": {"target": "T2, Clover-AZIN1 S367A mutant, recombinant fusion protein (human, UniProt O14977 1-448, S367A)", "T2 construct": "source: E. coli (pBAD vector), purified recombinant; not shown: Clover, N-terminal, kept", "T2 sequence (looked up)": "T1 sequence (looked up) with S367A"}, "[3]": {"target": "T3, Clover-AZIN1 S367G (edited AZIN1), recombinant fusion protein (human, UniProt O14977 1-448, S367G)", "T3 construct": "Point mutation introduced by PCR-based site-directed mutagenesis; source: E. coli (pBAD vector), purified recombinant; not shown: Clover, N-terminal, kept", "T3 sequence (looked up)": "T1 sequence (looked up) with S367G"}, "[4]": {"target": "T4, Clover-AZIN1 S367N mutant, recombinant fusion protein (human, UniProt O14977 1-448, S367N)", "T4 construct": "source: E. coli (pBAD vector), purified recombinant; not shown: Clover, N-terminal, kept", "T4 sequence (looked up)": "T1 sequence (looked up) with S367N"}},
  "note": "Changes are numbered by the printed parent chain.",
  "data": [
    {"binder": "B1", "values": [
      {"measurement": "Kd", "setting": "[1]", "result": 22, "unit": "nM"},
      {"measurement": "Kd", "setting": "[2]", "result": 39, "unit": "nM"},
      {"measurement": "Kd", "setting": "[3]", "result": 57, "unit": "nM"},
      {"measurement": "Kd", "setting": "[4]", "result": 40, "unit": "nM"}
    ]}
  ]
}
